Reference: patent US20210009685A1 (ALTEOGEN, published 2021)

Legend:
[1] = biological target: T1, Folate receptor alpha (FOLR1) (human, UniProt P15328 25-234, limits assumed); test: screening ELISA of panned phage library clones on FOLR1
T1 construct: Antigen printed simply as FOLR1 for the panning, the clone ELISA and the SPR chip; also called human FOLR1; folate receptor-α

FOLR1-Fc [2] = biological target: T2, FOLR1-Fc (UniProt P15328 25-234, limits assumed); test: ELISA, FOLR1-Fc coated, antibody titrated
T2 construct: also called FOLR1 (ELISA coating); not shown: Fc part
Procedure: (§1) For the purpose of comparing the binding affinities of the primarily selected clones with each other, ELISA was performed at different clone concentrations in the following manner. 25 μL of FOLR1 was added to each well of a 96-well plate at a concentration of 1 μg/mL, coated on the plate at room temperature for 1 hour, and then blocked with 180 μL of 3% skim milk at room temperature for 1 hour. During blocking, samples to be used as primary antibodies were prepared. As primary antibodies, samples selected by screening were used. The samples were diluted to a concentration of 0.1 to 100 nM (0, 0.1, 0.3, 1, 3, 10, 30, and 100 nM) and cold-stored until use. After blocking, 3% skim milk was removed, and 25 μL of the primary antibody was added to each well and allowed to react at room temperature for 1 hour or more. After completion of the reaction, each well was washed three times with PBS-Tween20 (0.1%) buffer. As a secondary antibody, HA-HRP was diluted 3,000-fold with 3% skim milk, and 25 μL of the dilution was added to each well and allowed to react at room temperature for 1 hour or more. After completion of the reaction, each well was washed three times with PBS-Tween20 (0.1%), and 25 μL of substrate TMB was added to each well to confirm color development. After about 5 minutes, 25 μL of 1 M H₂SO₄ was added to each well to stop the reaction, and the absorbance at a wavelength of 450 nm was measured. From the measurement results, the EC (Effector concentration) value was calculated using the GraphPad Prism 7 program.
(§2) The measured values are obtained in different experiments for comparison with the parent antibody.

FOLR1-Fc [3] = biological target: T2, FOLR1-Fc; test: ELISA, FOLR1-Fc coated
Procedure: as §1, §2

T1 sequence (P15328 25-234 limits assumed): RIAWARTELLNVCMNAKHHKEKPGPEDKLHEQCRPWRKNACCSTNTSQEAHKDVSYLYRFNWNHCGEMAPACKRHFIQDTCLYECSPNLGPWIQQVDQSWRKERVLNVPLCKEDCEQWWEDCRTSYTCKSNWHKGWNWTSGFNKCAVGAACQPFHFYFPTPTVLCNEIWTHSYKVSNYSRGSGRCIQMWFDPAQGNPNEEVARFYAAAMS
T2 sequence (P15328 25-234 limits assumed): as above

Binder | binding result [1] | EC50 (FOLR1-Fc [2]) [ng/mL] | Relative Potency (FOLR1-Fc [3])
CDR-L1 library clone C7 (Fab, V domains shown, Fab clone from the phage library on the parent Fab template; Only the CDR-L1 is printed) VH: EVQLVESGGGVVQPGRSLRLSCSASGFTFSGYGLSWVRQAPGKGLEWVAMISSGGSYTYYADSVKGRFAISRDNAKNTLFLQMDSLRPEDTGVYFCARHGDDPAWFAYWGQGTPVTVSS VL: DIQLTQSPSSLSASVGDRVTITCSASSSLSSSYLHWYQQKPGKAPKPWIYGTSNLASGVPSRFSGSGSGTDYTFTISSLQPEDIATYYCQQWSSYPYMYTFGQGTKVEIK | binds | – | –
CDR-L2 library clone H2 (Fab, V domains shown, Fab clone from the phage library on the parent Fab template; Only the CDR-L2 is printed) VH: EVQLVESGGGVVQPGRSLRLSCSASGFTFSGYGLSWVRQAPGKGLEWVAMISSGGSYTYYADSVKGRFAISRDNAKNTLFLQMDSLRPEDTGVYFCARHGDDPAWFAYWGQGTPVTVSS VL: DIQLTQSPSSLSASVGDRVTITCSVSSSISSNNLHWYQQKPGKAPKPWIYTASSRASGVPSRFSGSGSGTDYTFTISSLQPEDIATYYCQQWSSYPYMYTFGQGTKVEIK | binds | – | –
CDR-L2 library clones E9, G6 (Fab, V domains shown, Fab clones from the phage library on the parent Fab template; Only the CDR-L2 is printed) VH: EVQLVESGGGVVQPGRSLRLSCSASGFTFSGYGLSWVRQAPGKGLEWVAMISSGGSYTYYADSVKGRFAISRDNAKNTLFLQMDSLRPEDTGVYFCARHGDDPAWFAYWGQGTPVTVSS VL: DIQLTQSPSSLSASVGDRVTITCSVSSSISSNNLHWYQQKPGKAPKPWIYGASSLATGVPSRFSGSGSGTDYTFTISSLQPEDIATYYCQQWSSYPYMYTFGQGTKVEIK | binds | – | –
CDR-L2 library clone C3 (Fab, V domains shown, Fab clone from the phage library on the parent Fab template; Only the CDR-L2 is printed) VH: EVQLVESGGGVVQPGRSLRLSCSASGFTFSGYGLSWVRQAPGKGLEWVAMISSGGSYTYYADSVKGRFAISRDNAKNTLFLQMDSLRPEDTGVYFCARHGDDPAWFAYWGQGTPVTVSS VL: DIQLTQSPSSLSASVGDRVTITCSVSSSISSNNLHWYQQKPGKAPKPWIYATSNRESGVPSRFSGSGSGTDYTFTISSLQPEDIATYYCQQWSSYPYMYTFGQGTKVEIK | binds | – | –
CDR-L1 library clone D7 (Fab, V domains shown, Fab clone from the phage library on the parent Fab template; Only the CDR-L1 is printed) VH: EVQLVESGGGVVQPGRSLRLSCSASGFTFSGYGLSWVRQAPGKGLEWVAMISSGGSYTYYADSVKGRFAISRDNAKNTLFLQMDSLRPEDTGVYFCARHGDDPAWFAYWGQGTPVTVSS VL: DIQLTQSPSSLSASVGDRVTITCRASSGLSSNNLHWYQQKPGKAPKPWIYGTSNLASGVPSRFSGSGSGTDYTFTISSLQPEDIATYYCQQWSSYPYMYTFGQGTKVEIK | binds | – | –
CDR-L2 library clone C10 (Fab, V domains shown, Fab clone from the phage library on the parent Fab template; Only the CDR-L2 is printed) VH: EVQLVESGGGVVQPGRSLRLSCSASGFTFSGYGLSWVRQAPGKGLEWVAMISSGGSYTYYADSVKGRFAISRDNAKNTLFLQMDSLRPEDTGVYFCARHGDDPAWFAYWGQGTPVTVSS VL: DIQLTQSPSSLSASVGDRVTITCSVSSSISSNNLHWYQQKPGKAPKPWIYATSSLATGVPSRFSGSGSGTDYTFTISSLQPEDIATYYCQQWSSYPYMYTFGQGTKVEIK | binds | – | –
Modified antibody vAb2 (antibody, V domains shown, Carries modified CDR-L1 and CDR-L2) VH: EVQLVESGGGVVQPGRSLRLSCSASGFTFSGYGLSWVRQAPGKGLEWVAMISSGGSYTYYADSVKGRFAISRDNAKNTLFLQMDSLRPEDTGVYFCARHGDDPAWFAYWGQGTPVTVSS VL: DIQLTQSPSSLSASVGDRVTITCSASSGLSSSYLHWYQQKPGKAPKPWIYGTSSRASGVPSRFSGSGSGTDYTFTISSLQPEDIATYYCQQWSSYPYMYTFGQGTKVEIK | – | 3.94 | 3.04 fold against parent antibody
CDR-L1 library clone F3 (Fab, V domains shown, Fab clone from the phage library on the parent Fab template; Only the CDR-L1 is printed) VH: EVQLVESGGGVVQPGRSLRLSCSASGFTFSGYGLSWVRQAPGKGLEWVAMISSGGSYTYYADSVKGRFAISRDNAKNTLFLQMDSLRPEDTGVYFCARHGDDPAWFAYWGQGTPVTVSS VL: DIQLTQSPSSLSASVGDRVTITCRASSGVSSNNLHWYQQKPGKAPKPWIYGTSNLASGVPSRFSGSGSGTDYTFTISSLQPEDIATYYCQQWSSYPYMYTFGQGTKVEIK | binds | – | –
CDR-L2 library clone G3 (Fab, V domains shown, Fab clone from the phage library on the parent Fab template; Only the CDR-L2 is printed) VH: EVQLVESGGGVVQPGRSLRLSCSASGFTFSGYGLSWVRQAPGKGLEWVAMISSGGSYTYYADSVKGRFAISRDNAKNTLFLQMDSLRPEDTGVYFCARHGDDPAWFAYWGQGTPVTVSS VL: DIQLTQSPSSLSASVGDRVTITCSVSSSISSNNLHWYQQKPGKAPKPWIYATSNLASGVPSRFSGSGSGTDYTFTISSLQPEDIATYYCQQWSSYPYMYTFGQGTKVEIK | binds | – | –
Modified antibody vAb3 (antibody, V domains shown, Carries modified CDR-L1) VH: EVQLVESGGGVVQPGRSLRLSCSASGFTFSGYGLSWVRQAPGKGLEWVAMISSGGSYTYYADSVKGRFAISRDNAKNTLFLQMDSLRPEDTGVYFCARHGDDPAWFAYWGQGTPVTVSS VL: DIQLTQSPSSLSASVGDRVTITCSASSGLSSSYLHWYQQKPGKAPKPWIYGTSNLASGVPSRFSGSGSGTDYTFTISSLQPEDIATYYCQQWSSYPYMYTFGQGTKVEIK | – | 0.77 | 3.99 fold against parent antibody
Modified antibody vAb5 (antibody, V domains shown, Carries modified CDR-H3) VH: EVQLVESGGGVVQPGRSLRLSCSASGFTFSGYGLSWVRQAPGKGLEWVAMISSGGSYTYYADSVKGRFAISRDNAKNTLFLQMDSLRPEDTGVYFCARHGDDVAWFAYWGQGTPVTVSS VL: DIQLTQSPSSLSASVGDRVTITCSVSSSISSNNLHWYQQKPGKAPKPWIYGTSNLASGVPSRFSGSGSGTDYTFTISSLQPEDIATYYCQQWSSYPYMYTFGQGTKVEIK | – | 2.17 | 1.42 fold against parent antibody
Modified antibody vAb4 (antibody, V domains shown, Carries modified CDR-L2) VH: EVQLVESGGGVVQPGRSLRLSCSASGFTFSGYGLSWVRQAPGKGLEWVAMISSGGSYTYYADSVKGRFAISRDNAKNTLFLQMDSLRPEDTGVYFCARHGDDPAWFAYWGQGTPVTVSS VL: DIQLTQSPSSLSASVGDRVTITCSVSSSISSNNLHWYQQKPGKAPKPWIYGTSSRASGVPSRFSGSGSGTDYTFTISSLQPEDIATYYCQQWSSYPYMYTFGQGTKVEIK | – | 1.59 | 1.94 fold against parent antibody
CDR-L1 library clone D5 (Fab, V domains shown, Fab clone from the phage library on the parent Fab template; Only the CDR-L1 is printed) VH: EVQLVESGGGVVQPGRSLRLSCSASGFTFSGYGLSWVRQAPGKGLEWVAMISSGGSYTYYADSVKGRFAISRDNAKNTLFLQMDSLRPEDTGVYFCARHGDDPAWFAYWGQGTPVTVSS VL: DIQLTQSPSSLSASVGDRVTITCRVSSGISSNNLHWYQQKPGKAPKPWIYGTSNLASGVPSRFSGSGSGTDYTFTISSLQPEDIATYYCQQWSSYPYMYTFGQGTKVEIK | binds | – | –
CDR-L1 library clone H7 (Fab, V domains shown, Fab clone from the phage library on the parent Fab template; Only the CDR-L1 is printed) VH: EVQLVESGGGVVQPGRSLRLSCSASGFTFSGYGLSWVRQAPGKGLEWVAMISSGGSYTYYADSVKGRFAISRDNAKNTLFLQMDSLRPEDTGVYFCARHGDDPAWFAYWGQGTPVTVSS VL: DIQLTQSPSSLSASVGDRVTITCSVSSSLSSSNLHWYQQKPGKAPKPWIYGTSNLASGVPSRFSGSGSGTDYTFTISSLQPEDIATYYCQQWSSYPYMYTFGQGTKVEIK | binds | – | –
CDR-L1 library clone H1 (Fab, V domains shown, Fab clone from the phage library on the parent Fab template; Only the CDR-L1 is printed) VH: EVQLVESGGGVVQPGRSLRLSCSASGFTFSGYGLSWVRQAPGKGLEWVAMISSGGSYTYYADSVKGRFAISRDNAKNTLFLQMDSLRPEDTGVYFCARHGDDPAWFAYWGQGTPVTVSS VL: DIQLTQSPSSLSASVGDRVTITCSASSSISSSYLHWYQQKPGKAPKPWIYGTSNLASGVPSRFSGSGSGTDYTFTISSLQPEDIATYYCQQWSSYPYMYTFGQGTKVEIK | binds | – | –
CDR-L2 library clone B1 (Fab, V domains shown, Fab clone from the phage library on the parent Fab template; Only the CDR-L2 is printed) VH: EVQLVESGGGVVQPGRSLRLSCSASGFTFSGYGLSWVRQAPGKGLEWVAMISSGGSYTYYADSVKGRFAISRDNAKNTLFLQMDSLRPEDTGVYFCARHGDDPAWFAYWGQGTPVTVSS VL: DIQLTQSPSSLSASVGDRVTITCSVSSSISSNNLHWYQQKPGKAPKPWIYATSSRATGVPSRFSGSGSGTDYTFTISSLQPEDIATYYCQQWSSYPYMYTFGQGTKVEIK | binds | – | –
